Measured values published in patent US20120040474A1 (published 2012).
Residue numbers refer to the chain shown, from its start.

What was measured:
Assay in all cases: SPR, denatured RNase B
[1] = target: T1, PNGase F D60A/R125A mutant (Flavobacterium meningosepticum, UniProt P21163 41-354)
T1 sequence: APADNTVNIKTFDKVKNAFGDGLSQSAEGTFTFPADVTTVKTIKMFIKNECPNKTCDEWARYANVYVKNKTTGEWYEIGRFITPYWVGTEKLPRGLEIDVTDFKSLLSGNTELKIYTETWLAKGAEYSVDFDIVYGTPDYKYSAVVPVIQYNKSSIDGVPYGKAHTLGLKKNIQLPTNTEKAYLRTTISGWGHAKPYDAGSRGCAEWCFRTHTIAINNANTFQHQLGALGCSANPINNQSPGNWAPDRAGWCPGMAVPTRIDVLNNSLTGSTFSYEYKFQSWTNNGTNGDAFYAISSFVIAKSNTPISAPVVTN

[2] = target: T2, PNGase F D60A/E206Q mutant (Flavobacterium meningosepticum, UniProt P21163 41-354)
T2 sequence: T1 sequence with A125R, E206Q

[3] = target: T3, PNGase F D60N mutant (Flavobacterium meningosepticum, UniProt P21163 41-354)
T3 sequence: T1 sequence with A60N, A125R

[4] = target: T4, PNGase F D60A mutant (Flavobacterium meningosepticum, UniProt P21163 41-354)
T4 sequence: T1 sequence with A125R

[5] = target: T5, PNGase F D60A/E206K mutant (Flavobacterium meningosepticum, UniProt P21163 41-354)
T5 sequence: T1 sequence with A125R, E206K

[6] = target: T6, PNGase F D60A/E206R mutant (Flavobacterium meningosepticum, UniProt P21163 41-354)
T6 sequence: T1 sequence with A125R, E206R

[7] = target: T7, PNGase F E206A mutant (Flavobacterium meningosepticum, UniProt P21163 41-354)
T7 sequence: T1 sequence with A60D, A125R, E206A

[8] = target: T8, PNGase F D60A/E206A mutant (Flavobacterium meningosepticum, UniProt P21163 41-354)
T8 sequence: T1 sequence with A125R, E206A

[9] = target: T9, PNGase F D60A/D57A mutant (Flavobacterium meningosepticum, UniProt P21163 41-354)
T9 sequence: T1 sequence with D57A, A125R

B1: denatured glycoprotein RNase B (enzyme)
chain: KETAAAKFERQHMDSSTSAASSSNYCNQMMKSRNLTKDRCKPVNTFVHESLADVQAVCSQKNVACKNGQTNCYQSYSTMSITDCRETGSSKYPNCAYKTTQANKHIIVACEGNPYVPVHFDASV
modifications: a single N-glycosylation site predominantly occupied by high mannose oligosaccharides; protein denatured
notes: Recognition by the PNGase F mutants and by Con A goes through the N-linked glycan on the protein; also called denatured RNase B; dRNAse B
Kd [1]: 18 µM
Kd [2]: 18 µM
Kd [3]: 21 µM
Kd [4]: 11 µM
Kd [5]: 18 µM
Kd [6]: 27 µM
Kd [7]: 11 µM
Kd [8]: 20 µM
Kd [9]: 7 µM
